The values below are quoted from earlier work in PMC9636575.

Bounds are passed on as bounds.

In the series the target is MqsA 1-76 (Escherichia coli) (UniProt Q46864).
Chain of MqsA 1-76 (Escherichia coli) (Q46864 1-76): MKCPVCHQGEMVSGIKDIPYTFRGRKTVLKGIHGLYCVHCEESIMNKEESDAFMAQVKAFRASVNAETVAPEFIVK

Chain of MqsR (Q46865 whole entry): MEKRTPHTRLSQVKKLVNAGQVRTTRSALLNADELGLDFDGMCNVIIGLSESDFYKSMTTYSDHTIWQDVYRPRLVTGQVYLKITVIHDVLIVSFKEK

Usually Kd stands for the concentration at which binding is half-saturated. Consider MqsR (from UniProt Q46865), for which the Kd is under 1 nM.
